According to patent publication US20100160220A1:

Columns and labels:
[1] = molecular target: PTH1R tagged with HA (human) (UniProt Q03431); experiment: PTH ligand incubated with transfected cells for 15 seconds, plasma membrane isolated, bound ligand by Western blot
PTH1R-YFP2 = PTH1R-YFP2 (UniProt Q03431); experiment: YFP protein-fragment complementation assay with PTH1R-YFP2 in living cells
Chain of PTH1R-YFP2 (Q03431 27-593): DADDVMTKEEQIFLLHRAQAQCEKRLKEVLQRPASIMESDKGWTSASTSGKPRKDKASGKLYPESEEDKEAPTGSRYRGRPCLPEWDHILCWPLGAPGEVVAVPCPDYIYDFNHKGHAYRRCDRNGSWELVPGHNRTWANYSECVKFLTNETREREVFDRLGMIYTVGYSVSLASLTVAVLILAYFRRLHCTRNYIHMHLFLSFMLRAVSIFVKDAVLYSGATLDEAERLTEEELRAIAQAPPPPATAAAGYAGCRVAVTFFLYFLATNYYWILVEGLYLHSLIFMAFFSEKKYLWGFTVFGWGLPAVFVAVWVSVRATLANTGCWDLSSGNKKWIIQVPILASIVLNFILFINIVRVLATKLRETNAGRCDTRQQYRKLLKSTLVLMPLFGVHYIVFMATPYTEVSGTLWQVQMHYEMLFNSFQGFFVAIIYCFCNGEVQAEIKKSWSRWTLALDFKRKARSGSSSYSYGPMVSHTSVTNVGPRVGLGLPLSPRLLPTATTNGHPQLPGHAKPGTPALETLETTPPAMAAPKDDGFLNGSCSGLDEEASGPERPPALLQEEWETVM

Chain of PTH1R tagged with HA (human) (Q03431 27-593): as above

reduction of binding of PTH ligands versus vector control (cells overexpressing WT TβRII) [1] [%] | YFP fluorescence intensity relative to WT TβRII (fold of WT TβRII-YFP1) (PTH1R-YFP2) | Substance
50 | – | PTH ligand (form not stated, Example 12) (from UniProt P01270 32-65)
– | 0.167 | kinase dead TβRII (K277A)-YFP1 (from UniProt P37173 23-567) (receptor)
